This is an account of results in patent US20050058747.

Data set [1] addresses Soybean agglutinin (SBA), P05046.
For data set [2], the target named is T1, soybean Bowman-Birk inhibitor, P01055.
T1 chain: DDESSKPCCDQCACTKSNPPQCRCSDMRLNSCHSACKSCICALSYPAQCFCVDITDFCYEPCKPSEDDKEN

The target of data set [3] is T2, soybean Kunitz trypsin inhibitor, P01070.
T2 chain: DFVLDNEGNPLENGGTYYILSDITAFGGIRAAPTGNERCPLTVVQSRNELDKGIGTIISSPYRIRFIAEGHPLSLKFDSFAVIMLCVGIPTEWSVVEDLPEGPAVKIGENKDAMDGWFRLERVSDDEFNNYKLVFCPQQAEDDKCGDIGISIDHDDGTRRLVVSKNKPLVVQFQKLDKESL

Soybean agglutinin (SBA), P05046, sequence (P05046 33-285): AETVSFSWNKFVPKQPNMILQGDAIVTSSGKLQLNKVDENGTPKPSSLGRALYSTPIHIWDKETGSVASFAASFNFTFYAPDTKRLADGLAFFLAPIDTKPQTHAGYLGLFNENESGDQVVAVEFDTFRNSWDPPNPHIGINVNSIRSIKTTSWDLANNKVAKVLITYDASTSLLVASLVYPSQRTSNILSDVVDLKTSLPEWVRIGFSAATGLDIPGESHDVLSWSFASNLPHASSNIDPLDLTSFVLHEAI

B1: protease of the invention having amino acids 1-188 of SEQ ID NO: 2 (protease derived from Nocardiopsis dassonvillei subsp. dassonvillei DSM 43235) (protein)
chain: ADIIGGLAYYMGGRCSVGFAATNSAGQPGFVTAGHCGTVGTGVTIGNGTGTFQNSVFPGNDAAFVRGTSNFTLTNLVSRYNSGGYQSVTGTSQAPAGSAVCRSGSTTGWHCGTIQARNQTVRYPQGTVYSLTRTNVCAEPGDSGGSFISGSQAQGVTSGGSGNCSVGGTTYYQEVTPMINSWGVRIRT
For B1, the Percentage degradation of isolated soy proteins was found to be 95% in data set [1]; 100% with Soybean beta-conglycinin; 100% with Soybean glycinin; 81% in data set [2]; 97% in data set [3].
